Source: publication doi:10.1101/2022.12.27.521990

Molecular target: Soluble, trimeric spike of SARS-CoV-2/human/China/Wuhan-Hu-1/2019 (residues 1-1204, 6 proline mutations) (SARS-CoV-2) (UniProt P0DTC2)
Experiment: SEC

Q: With “Soluble, trimeric spike of SARS-CoV-2/human/China/Wuhan-Hu-1/2019 (residues 1-1204, 6 proline mutations) (from UniProt P0DTC2 14-1204) (domain or fragment)” as the substance, how does the stoichiometry N read?
A: 3
